Experimental data reported in patent US20080241919A1, “Defined media for pluripotent stem cell culture” (The Burnham Institute of Medical Research, priority 2003, published 2008).

Test system: human embryonic stem cells (hESCs)
Test: Other growth factors in place of bFGF for undifferentiated growth of hESCs
Type: cell-based
Details: feeder- and serum-free conditions
Description: All the growth factors were dissolved in a PBS buffer that contained 0.5% BSA, 1 mM DTT (Dithiothreitol) and 10% glyceral as a 10 μg/ml (500×) stock solution and stored in aliquots at −80° C. These factors were added individually to the hESC cultures at a concentration of 20 ng/ml, in the absence of bFGF or in the presence of a low concentration of bFGF (4 ng/ml). Seven days after seeding undifferentiated hESCs on laminin/collagen-coated plates, the cultures were examined.

B1: activin-A: human growth factor tested in place of bFGF (protein, UniProt P08476 311-426, looked up)
Inhibin beta A chain: GLECDGKVNICCKKQFFVSFKDIGWNDWIIAPSGYHANYCEGECPSHIAGTSGSSLSFHSTVINHYRMRGHSPFANLKSCCVPTKLRPMSMLYYDDGQNIIKKDIQNMIVEECGCS
In the case of B1, the “ability to replace bFGF in supporting undifferentiated growth of hESCs” value is reported as “can not replace bFGF”.
